Experimental data reported in article PMC7753581 (The FASEB Journal, 2020).

How the values were obtained:
[1] = biological target: HLA I molecule A*02:01, purified; assay: radioligand binding
[2] = system: CD8 T cells of peptide‐expanded PBMCs from A*02:01‐donors; assay: DimerX staining; format: cell-based, human; details: Figure 5A; peptide‐stimulated PBMCs from A*02:01‐subject #14; representative experiment

Substance HRVC_(1791-1806) peptide has an IC50 [1] of 91 nM.
With NTSAGFPYV [HRVC1798‐1806] the “percentage of CD8 T cells recognizing DimerX‐peptides within the total of gated‐CD8 T cells” value [2] was 1.12%.
